Reference: the Human Domainome abundance scans (Beltran et al. 2025)

B1: Integrator complex subunit 12, residues 155 to 213; numbered along this chain, Q96CB8 (parent)
chain: AMEMGLACVVCRQMMVASGNQLVECQECHNLYHRDCHKPQVTDKEANDPRLVWYCARCT

Variants of: B1
Experiment: abundance fitness (aPCA) (normalised: wild type 0, dead -1); higher = more abundant; growth selection in yeast, the domain comes from the species named
Conditions: Homo sapiens

Abundance fitness: each site, then its substitutions
G19: E 0.058; H -0.072; Y -0.167; K 0.065; D 0.031; P -0.069; W -0.286; R -0.116; T -0.026; F -0.353; Q -0.175; N -0.014; I -0.137; M -0.206; V -0.088; S -0.044; A -0.042
E24: M -0.397; S -0.236; W -0.563; T -0.157; Q -0.088; F -0.459; L -0.376; A -0.123; V -0.262; Y -0.493; N -0.308; G -0.3; H -0.226; C -0.219; K -0.205; D -0.117; I -0.387; R -0.094
H33: R -0.638; Y -0.795; P -0.72; Q -0.769; I -0.873; A -0.609; M -0.882; L -0.869; S -0.721; C 0.013; T -0.85; G -0.668; V -0.767; W -1.21; D -0.547; K -0.542; E -0.483; N -0.584
H29: V -0.438; P -0.612; R -0.053; N -0.117; G -0.016; T -0.216; W -0.426; D -0.26; Y -0.182; L -0.275; K 0.084; M -0.097; F -0.19; C -0.185
R34: M 0.005; Q 0.082; L 0.037; K 0.229; P 0.067; T 0.005; F 0.016; Y 0.058; G 0.066; W 0.143; S 0.009; V -0.018; A -0.054; C -0.17; E -0.016; I -0.019; H -0.083
Y32: D -0.525; T -0.263; L -0.152; E -0.388; S -0.315; A -0.128; R -0.308; H -0.254; W 0.045; K -0.514; G -0.335; P -0.611; F 0.003; C -0.207; V -0.159; Q -0.3; M -0.143
C28: I -0.954; T -0.749; M -0.835; E -0.845; Y -0.714; Q -0.801; H -0.664; R -0.816; W -0.891; K -0.648; L -0.773; F -0.818; D -0.576; G -0.519; A -0.616; S -0.68; N -0.561; P -0.787; V -0.845
D35: E 0.107; C -0.045; G 0.013; A 0.054
M15: Y -0.025; T 0.04; W -0.171; S 0.079
Q26: E -0.013; M -0.184; K -0.039; Y -0.017; L -0.111; S -0.045; N 0.013; A 0.007; P -0.014; G 0.039; T -0.052; F -0.062; C -0.038; V -0.059; I -0.155; H -0.012; D -0.147; R -0.008; W -0.117
E27: F -0.143; S -0.007; T -0.036; L -0.105; N -0.009; C -0.107; M -0.103; G -0.043; K 0.087; Q -0.096; Y -0.208; R -0.001; V -0.184; A -0.044; P -0.67; D -0.049
A17: T -0.065; S 0.006; L -0.179; I -0.098; Y -0.091; E -0.04; M -0.049; F -0.233; D -0.211; P 0.005; K 0.037; C -0.048; N 0.001; W -0.388; Q 0.069; R -0.03; V -0.075
V23: T -0.158; D -0.296; P -0.518; F -0.021; Y -0.046; G -0.528; H -0.075; Q -0.098; C -0.103; W -0.045; N -0.228; A -0.179; L 0.006; E -0.251; K -0.164; I 0.001
V16: Q -0.013; D 0.017; E 0.029; N 0.016; C -0.029; K 0.03; Y -0.144; P -0.002; T 0.044; F -0.02; W -0.148; A 0.042; G 0.037; R 0.019; L -0.022; S 0.011; I -0.089
L22: T -0.084; I -0.036; K 0.01; Y 0.039; V -0.003; P -0.115; H -0.001; Q -0.297; G 0.013; W -0.113; N -0.042; R -0.153; F 0.014; M -0.006; E -0.353; D -0.292; C -0.03
Q21: H 0; D -0.008; G -0.018; S 0.019; I -0.091; A -0.026; V -0.068; R 0.004; F -0.078; M 0.079; E -0.067; W -0.223; T 0.084; P -0.072; Y -0.117; K -0.123; N -0.056
L31: G -0.048; Q 0.084; H 0.057; N 0.027; Y 0.047; R 0.091; A 0.04; M -0.008; W 0.101; K 0.103; T 0.055; S 0.046; E -0.358; P -0.164; C 0.047; F 0.075; I 0.01
N20: C -0.098; T -0.007; G -0.05; D 0.005; E -0.007; W -0.281; R -0.045; L -0.219; P -0.011; F -0.165; H -0.015; S -0.036; I -0.089; M -0.387; K 0.02; V -0.049; A -0.03; Y -0.171
S18: D 0.043; W -0.34; R -0.066; H 0.014; V -0.102; N 0.015; C -0.135; L -0.107; G -0.002; Q 0.001; F -0.124; T 0.037; A 0.017; M -0.078; E -0.001; P 0.077; I -0.129; K 0.009; Y -0.183
C25: S -0.662; L -0.866; P -0.869; R -0.714; K -0.915; G -0.66; M -0.792; N -0.773; H -0.72; D -0.655; E -0.824; Q -0.458; I -0.906; W -0.959; V -0.819; T -0.622
N30: D 0.079; L -0.002; Q 0.028; V -0.129; K 0.048; Y -0.081; S -0.071; G 0.03; E -0.103; P -0.706; C 0.013; F -0.179; W -0.091; T -0.105; H -0.049; R -0.01; I -0.231
